Binding signal (log2 fold change) data for five substances are collected here from patent US20240024414.

The target in this data set is L7Ae (50S ribosomal protein L7Ae, L30 family, RBP11) (Archaeoglobus fulgidus) (UniProt O29494). Briefly: pulldown. Particulars: RIP-Seq enrichment, may be indirect.
L7Ae (50S ribosomal protein L7Ae, L30 family, RBP11) (Archaeoglobus fulgidus), sequence (O29494 whole entry): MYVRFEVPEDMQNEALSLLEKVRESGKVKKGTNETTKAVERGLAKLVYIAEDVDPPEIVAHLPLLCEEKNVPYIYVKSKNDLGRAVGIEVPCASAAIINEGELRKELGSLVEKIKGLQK
Substance SNORA73B RNA registered a binding signal (log2 fold change) of 4.08.

Turning to SNORA79B RNA, the binding signal (log2 fold change) was found to be 3.28. In the case of NPM1 RNA it was 3.22; in that of FAM69A RNA, 4.98.

SNORA62 RNA: the binding signal (log2 fold change) amounted to 3.32.
